# In the supplement of paper PMC10065799, “High-throughput profiling of sequence recognition by tyrosine kinases and SH2 domains using bacterial peptide display” (eLife, 2023):
# Tests used:
# Grb2 SH2 = Grb2 SH2 (UniProt P62993); experiment: SH2 binding enrichment of the phosphorylated peptide, bacterial display (enrichment ratio); higher = better substrate or ligand; peptides without Tyr show the background
# SHP2-C SH2 = experiment: as above
# c-Src SH2 = experiment: as above
# FGFR3 = FGFR3 (UniProt P22607); experiment: phosphorylation enrichment, bacterial display (enrichment ratio); higher = better substrate or ligand; peptides without Tyr show the background
# Jak2 = Jak2 (UniProt O60674); experiment: as above
# AncSZ = experiment: as above
# MERTK = MERTK (UniProt Q12866); experiment: as above
# FGFR1 = FGFR1 (UniProt P11362); experiment: as above
# Fyn = Fyn (UniProt P06241); experiment: as above
# Fer (mouse) = experiment: as above
# EPHB1 = EPHB1 (UniProt P54762); experiment: as above
# c-Abl (mouse) = experiment: as above
# EPHB2 = EPHB2 (UniProt P29323); experiment: as above
# c-Src = experiment: as above
# Fes = Fes (UniProt P07332); experiment: as above
# Hck = Hck (UniProt P08631); experiment: as above
# 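Wherever SH2 binding enrichment of the phosphorylated peptide, bacterial display is given: peptide library displayed on the E. coli surface as eCPX fusions, selected cells deep-sequenced, score is each peptide's frequency after selection divided by its frequency in the input.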
# 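Wherever phosphorylation enrichment, bacterial display is given: 11-residue human phosphosite peptides and single-mutation variants displayed on the E. coli surface, counted by deep sequencing, each peptide's frequency after selection divided by its frequency in the unselected input library; frequency after pTyr selection over input frequency; kinase dosed for 20-30% of maximal phosphorylation in three min.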
# Chain of Fes (P07332 whole entry, looked up): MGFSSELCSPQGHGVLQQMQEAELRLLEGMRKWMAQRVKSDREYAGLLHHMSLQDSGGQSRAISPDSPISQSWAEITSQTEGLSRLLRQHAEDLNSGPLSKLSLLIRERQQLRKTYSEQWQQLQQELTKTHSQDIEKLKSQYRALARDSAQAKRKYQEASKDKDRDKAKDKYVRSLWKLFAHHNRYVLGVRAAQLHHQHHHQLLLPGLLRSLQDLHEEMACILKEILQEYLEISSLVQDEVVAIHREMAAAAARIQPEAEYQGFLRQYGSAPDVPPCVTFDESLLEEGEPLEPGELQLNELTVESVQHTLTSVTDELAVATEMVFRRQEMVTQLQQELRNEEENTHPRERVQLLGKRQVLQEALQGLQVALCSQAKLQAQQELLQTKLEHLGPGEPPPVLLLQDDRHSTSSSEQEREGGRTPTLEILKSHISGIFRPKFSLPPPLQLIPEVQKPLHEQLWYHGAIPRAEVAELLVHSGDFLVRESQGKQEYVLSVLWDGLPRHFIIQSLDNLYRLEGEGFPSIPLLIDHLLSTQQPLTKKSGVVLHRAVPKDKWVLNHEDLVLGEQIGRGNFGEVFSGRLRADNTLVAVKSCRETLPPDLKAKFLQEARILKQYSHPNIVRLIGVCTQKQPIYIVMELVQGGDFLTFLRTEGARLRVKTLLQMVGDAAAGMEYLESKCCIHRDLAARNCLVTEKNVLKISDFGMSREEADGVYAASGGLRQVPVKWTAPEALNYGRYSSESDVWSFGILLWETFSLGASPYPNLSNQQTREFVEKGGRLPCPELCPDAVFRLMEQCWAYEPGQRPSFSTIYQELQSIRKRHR
# Chain of Fyn (P06241 whole entry, looked up): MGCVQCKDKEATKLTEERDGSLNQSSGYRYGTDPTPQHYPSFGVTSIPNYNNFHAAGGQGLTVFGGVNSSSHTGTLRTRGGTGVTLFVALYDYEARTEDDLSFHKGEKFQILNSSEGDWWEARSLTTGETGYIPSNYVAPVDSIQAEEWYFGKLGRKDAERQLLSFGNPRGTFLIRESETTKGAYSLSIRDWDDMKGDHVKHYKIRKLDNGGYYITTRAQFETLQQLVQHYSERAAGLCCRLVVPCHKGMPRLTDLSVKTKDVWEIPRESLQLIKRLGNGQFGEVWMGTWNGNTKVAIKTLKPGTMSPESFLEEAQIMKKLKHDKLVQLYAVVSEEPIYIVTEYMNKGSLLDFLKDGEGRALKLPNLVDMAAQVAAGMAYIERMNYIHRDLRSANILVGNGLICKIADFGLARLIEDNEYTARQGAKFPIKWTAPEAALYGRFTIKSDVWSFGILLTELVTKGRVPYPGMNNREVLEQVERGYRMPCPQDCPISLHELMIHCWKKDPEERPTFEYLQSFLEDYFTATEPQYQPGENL
# Chain of EPHB2 (P29323 whole entry, looked up): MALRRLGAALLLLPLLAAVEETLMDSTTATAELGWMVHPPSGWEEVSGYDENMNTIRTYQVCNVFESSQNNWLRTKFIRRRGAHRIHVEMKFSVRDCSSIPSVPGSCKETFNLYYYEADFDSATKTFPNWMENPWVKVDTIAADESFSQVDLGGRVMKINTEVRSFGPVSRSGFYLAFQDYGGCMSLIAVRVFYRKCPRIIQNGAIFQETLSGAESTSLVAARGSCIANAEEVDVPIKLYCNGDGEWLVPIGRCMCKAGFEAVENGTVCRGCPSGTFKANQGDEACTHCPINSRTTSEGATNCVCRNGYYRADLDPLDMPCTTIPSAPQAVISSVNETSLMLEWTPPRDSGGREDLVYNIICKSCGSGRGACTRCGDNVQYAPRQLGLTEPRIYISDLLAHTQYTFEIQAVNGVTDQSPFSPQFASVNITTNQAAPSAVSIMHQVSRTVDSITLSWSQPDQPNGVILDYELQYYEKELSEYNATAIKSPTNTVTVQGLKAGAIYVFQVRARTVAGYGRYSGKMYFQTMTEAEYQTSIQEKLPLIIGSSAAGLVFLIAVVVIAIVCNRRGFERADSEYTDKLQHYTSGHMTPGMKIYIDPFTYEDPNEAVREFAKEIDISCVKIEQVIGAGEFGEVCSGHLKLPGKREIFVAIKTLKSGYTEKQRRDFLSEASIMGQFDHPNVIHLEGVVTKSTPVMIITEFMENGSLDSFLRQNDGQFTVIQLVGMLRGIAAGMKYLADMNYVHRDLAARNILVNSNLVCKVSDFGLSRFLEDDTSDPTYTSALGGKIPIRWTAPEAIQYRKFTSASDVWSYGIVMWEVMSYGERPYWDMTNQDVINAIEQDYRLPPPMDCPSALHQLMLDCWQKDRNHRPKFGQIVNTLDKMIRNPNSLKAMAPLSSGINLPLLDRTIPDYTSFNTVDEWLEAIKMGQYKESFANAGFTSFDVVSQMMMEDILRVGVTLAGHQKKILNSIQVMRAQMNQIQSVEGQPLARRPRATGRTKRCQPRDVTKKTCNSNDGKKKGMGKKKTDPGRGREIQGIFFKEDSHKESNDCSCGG
# Chain of Grb2 SH2 (P62993 whole entry, looked up): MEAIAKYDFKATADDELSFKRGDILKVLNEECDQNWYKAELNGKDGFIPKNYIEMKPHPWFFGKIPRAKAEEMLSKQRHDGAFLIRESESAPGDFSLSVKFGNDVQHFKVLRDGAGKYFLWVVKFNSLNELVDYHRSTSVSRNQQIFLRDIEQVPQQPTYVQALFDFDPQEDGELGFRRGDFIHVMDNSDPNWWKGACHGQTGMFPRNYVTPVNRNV
# Chain of MERTK (Q12866 whole entry, looked up): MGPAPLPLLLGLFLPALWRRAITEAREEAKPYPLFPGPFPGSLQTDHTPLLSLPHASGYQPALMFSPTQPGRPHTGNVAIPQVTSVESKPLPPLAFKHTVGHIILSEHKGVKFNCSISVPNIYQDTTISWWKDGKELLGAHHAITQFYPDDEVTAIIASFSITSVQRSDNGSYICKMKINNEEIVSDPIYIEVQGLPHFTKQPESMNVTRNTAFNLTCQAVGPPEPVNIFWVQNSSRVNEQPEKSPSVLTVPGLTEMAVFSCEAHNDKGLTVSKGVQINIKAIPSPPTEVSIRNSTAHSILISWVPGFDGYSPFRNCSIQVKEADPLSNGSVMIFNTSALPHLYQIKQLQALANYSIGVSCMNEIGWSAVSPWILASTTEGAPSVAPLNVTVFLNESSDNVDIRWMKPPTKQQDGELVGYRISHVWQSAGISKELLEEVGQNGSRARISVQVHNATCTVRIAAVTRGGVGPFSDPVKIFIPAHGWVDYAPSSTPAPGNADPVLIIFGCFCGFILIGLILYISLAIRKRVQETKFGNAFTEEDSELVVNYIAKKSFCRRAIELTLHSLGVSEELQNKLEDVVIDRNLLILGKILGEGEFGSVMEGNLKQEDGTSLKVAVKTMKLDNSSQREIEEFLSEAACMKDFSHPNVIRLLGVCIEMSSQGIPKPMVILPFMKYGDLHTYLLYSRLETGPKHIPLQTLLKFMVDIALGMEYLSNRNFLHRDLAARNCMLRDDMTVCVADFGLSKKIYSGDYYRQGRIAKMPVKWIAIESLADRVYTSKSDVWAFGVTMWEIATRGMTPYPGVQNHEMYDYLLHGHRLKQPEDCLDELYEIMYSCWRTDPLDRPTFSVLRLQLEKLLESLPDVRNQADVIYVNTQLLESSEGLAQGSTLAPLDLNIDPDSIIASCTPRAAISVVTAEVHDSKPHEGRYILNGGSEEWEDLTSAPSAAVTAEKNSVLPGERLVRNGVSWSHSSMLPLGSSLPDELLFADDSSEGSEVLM
# Chain of Jak2 (O60674 whole entry, looked up): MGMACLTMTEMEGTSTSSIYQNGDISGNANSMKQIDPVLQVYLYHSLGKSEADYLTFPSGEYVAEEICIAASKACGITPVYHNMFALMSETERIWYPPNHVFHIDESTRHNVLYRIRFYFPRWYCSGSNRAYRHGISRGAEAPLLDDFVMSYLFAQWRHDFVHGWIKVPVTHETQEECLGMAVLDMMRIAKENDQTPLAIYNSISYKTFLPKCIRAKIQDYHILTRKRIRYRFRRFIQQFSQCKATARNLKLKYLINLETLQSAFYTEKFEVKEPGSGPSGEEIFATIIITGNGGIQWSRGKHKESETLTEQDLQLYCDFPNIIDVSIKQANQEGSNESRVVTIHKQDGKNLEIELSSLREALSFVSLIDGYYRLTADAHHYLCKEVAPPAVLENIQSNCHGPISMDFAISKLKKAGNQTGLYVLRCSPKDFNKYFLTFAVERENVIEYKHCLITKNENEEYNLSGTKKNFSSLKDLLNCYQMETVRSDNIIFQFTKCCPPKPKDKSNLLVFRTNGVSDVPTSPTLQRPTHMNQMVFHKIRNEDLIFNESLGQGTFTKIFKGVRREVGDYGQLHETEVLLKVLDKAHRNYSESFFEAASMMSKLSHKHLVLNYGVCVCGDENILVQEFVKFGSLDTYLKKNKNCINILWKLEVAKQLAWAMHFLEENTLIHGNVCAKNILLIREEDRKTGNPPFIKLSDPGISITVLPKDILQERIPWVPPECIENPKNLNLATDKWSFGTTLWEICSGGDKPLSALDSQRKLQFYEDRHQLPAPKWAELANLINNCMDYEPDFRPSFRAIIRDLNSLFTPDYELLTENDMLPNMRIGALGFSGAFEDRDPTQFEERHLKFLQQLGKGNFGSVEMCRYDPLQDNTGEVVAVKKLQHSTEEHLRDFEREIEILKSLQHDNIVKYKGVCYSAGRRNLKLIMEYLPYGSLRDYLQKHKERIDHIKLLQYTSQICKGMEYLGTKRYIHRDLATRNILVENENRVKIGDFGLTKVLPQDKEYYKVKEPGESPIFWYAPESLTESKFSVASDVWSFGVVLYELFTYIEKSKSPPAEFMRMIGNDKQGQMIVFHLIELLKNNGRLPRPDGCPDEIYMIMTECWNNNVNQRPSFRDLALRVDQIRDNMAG
Sequence,SH2 binding enrichment (Grb2 SH2),SH2 binding enrichment (SHP2-C SH2),SH2 binding enrichment (c-Src SH2),phosphorylation enrichment (FGFR3),phosphorylation enrichment (Jak2),phosphorylation enrichment (AncSZ),phosphorylation enrichment (MERTK),phosphorylation enrichment (FGFR1),phosphorylation enrichment (Fyn),phosphorylation enrichment (Fer (mouse)),phosphorylation enrichment (EPHB1),phosphorylation enrichment (c-Abl (mouse)),phosphorylation enrichment (EPHB2),phosphorylation enrichment (c-Src),phosphorylation enrichment (Fes),phosphorylation enrichment (Hck)
FEREQYADRAR [RBM4_Y355_YF],0.956,0.567,0.536,0.587,0.515,0.626,0.331,0.426,0.484,0.394,0.414,0.464,0.446,0.396,0.727,0.426
FETDFYQKGGK [INSR_Y1190_R1191Q_YF],0.797,0.62,0.564,0.503,0.526,0.633,0.421,0.411,0.519,0.47,0.834,0.523,0.355,0.427,0.88,0.472
FFCRWYRNQKS [EREG_Y144_R147Q_YF],0.603,0.657,0.496,0.478,0.488,0.775,0.497,0.347,0.482,0.513,0.493,0.855,0.489,0.57,0.6,0.596
FFDANYDGKEF [MAPRE2_Y162_YF],0.68,0.759,0.501,0.695,0.957,1.11,0.424,0.824,0.529,0.446,0.558,0.611,0.666,0.443,1.42,0.601
FGISGYVVDSV [MAP2K3_Y214_L215V],0.742,0.605,0.719,0.623,0.761,0.775,0.443,0.478,0.449,0.421,0.543,0.532,0.517,0.412,0.956,0.49
FGLQAYTEVKT [ALDH2_Y502_YF],0.869,2.52,7.17,0.783,1.13,1.03,0.452,0.584,0.498,0.608,0.715,0.727,0.609,0.414,1.34,0.657
FGPPQYNIQFS [ERBB2IP_Y977_YF],0.907,0.806,0.592,0.508,0.741,0.768,0.311,0.447,0.364,0.342,0.524,0.641,0.44,0.395,0.779,0.405
FGRTFYNQANM [MCCC2_Y196_I200N],0.706,0.556,0.497,0.695,0.994,0.939,0.411,0.433,0.377,0.51,0.786,0.842,0.509,0.493,1.06,0.503
FHKALYTVRTF [PDE6C_Y266_S270T_YF],0.853,0.722,0.536,0.691,0.907,0.914,0.523,0.582,0.581,0.427,0.567,0.838,0.529,0.729,1.02,0.67
FIGCIYLYLTK [GARS1_Y414_R412C],1.51,1.53,1.04,0.79,1.28,1.02,0.435,0.535,0.393,0.486,0.614,0.746,0.451,0.704,0.96,0.373
FIILIYAMKKK [SLCO1B1_Y645_YF],1.83,1.66,0.965,0.377,0.447,0.323,1.35,0.509,0.321,0.354,0.179,0.51,0.385,0.32,0.583,0.465
FKGKKYKPLDL [RPL35_Y78_YF],0.849,0.571,0.479,0.413,0.486,0.577,0.337,0.376,0.467,0.481,0.421,0.544,0.361,0.533,0.571,0.48
FKNGDYSEVMK [LCT_Y1638_N1639S],1.11,0.739,1.84,0.468,0.686,0.697,0.433,0.57,0.42,0.362,0.859,0.429,0.877,0.574,0.709,0.413
FKRAVYCIIGR [NUP93_Y391_YF],1.01,0.686,1.06,0.536,0.772,0.952,1.13,0.511,0.682,0.529,0.576,0.776,0.617,0.809,0.9,0.938
FLAVGDHKPHI [IDS_Y225_Y225D],0.824,0.857,0.478,0.35,0.41,0.431,0.271,0.384,0.433,0.197,0.375,0.365,0.422,0.327,0.462,0.379
FLENFYDLKKD [MMP3_Y42_YF],0.821,0.788,0.519,0.551,0.922,1.24,0.549,0.452,2.57,0.472,0.453,0.663,0.563,1.9,1.02,1.92
